Measured values from patent publication US20220195055A1 (SHANDONG BOAN BIOTECHNOLOGY, published 2022).
Read-outs that look alike come from different tables or passages of the source.

How the values were obtained:
[1] = biological target: T1, CD25 protein (Sino Biological, 10165-H08H) (UniProt P01589 22-213); experiment: SPR (BIAcore 8K); antibody captured by anti-human IgG Fc, CD25 protein as analyte, 1:1 model
T1 construct: Bought recombinant protein; It speaks elsewhere of human CD25; also called antigen CD25; IL-2Rα
T1 sequence (looked up): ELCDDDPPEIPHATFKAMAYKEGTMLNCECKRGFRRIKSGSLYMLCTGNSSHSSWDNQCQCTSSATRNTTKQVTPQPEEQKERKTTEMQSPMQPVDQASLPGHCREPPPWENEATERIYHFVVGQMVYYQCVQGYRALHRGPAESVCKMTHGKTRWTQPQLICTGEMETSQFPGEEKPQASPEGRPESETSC
Method: Antibody binding kinetics uses BIAcore8K instrument based on surface plasmon resonance (SRP) technology to measure. Anti-human IgG antibody amino was coupled to a CMS biosensor chip by the GE anti Human IgG Fc amino coupling kit (GE, cat # BR-1008-39) to obtain approximately 1000 response units (RU). For kinetic measurements, the CD25 protein (Sino Biological, 10165-H08H) was diluted 2-fold continuously with HBS-EP+1×(GE, BR-1008-26) buffer, starting at 50 nM, being diluted 2-fold for 4 concentration gradients and setting 0 concentration. The antibody to be detected: 2 μg/ml, sample injection time 70 s, flow rate 5 μL/min, stable for 5 s; CD25 protein: binding for 60 s, flow rate 30 μL/min, dissociation for 450 s; regeneration: regeneration was performed for 30 s with 3M MgCl₂ buffer, Startup 3 times. The association constant (ka) and dissociation constant (kd) were calculated using a simple one-to-one Languir binding model (BIAcore Evaluation Software version 3.2), and the equilibrium dissociation constant (KD) was calculated by the ratio kd/ka.

[2] = biological target: T1, CD25 protein (Sino Biological, …); experiment: ELISA; CD25 protein coated in a dilution series, antibody at one fixed concentration, anti-human IgG/HRP
Source text: (§1) The results are shown in FIG. 2A to FIG. 2E and Table 2 to Table 6.

[3] = biological target: T1, CD25 protein (Sino Biological, …); experiment: as above; remark: listed apart in the source
Source text: as §1

[4] = biological target: T2, CD25 on cells (SU-DHL-1 target cells; PBMC) (UniProt P01589 22-272, limits assumed); experiment: cell-based or functional assay
T2 sequence (looked up): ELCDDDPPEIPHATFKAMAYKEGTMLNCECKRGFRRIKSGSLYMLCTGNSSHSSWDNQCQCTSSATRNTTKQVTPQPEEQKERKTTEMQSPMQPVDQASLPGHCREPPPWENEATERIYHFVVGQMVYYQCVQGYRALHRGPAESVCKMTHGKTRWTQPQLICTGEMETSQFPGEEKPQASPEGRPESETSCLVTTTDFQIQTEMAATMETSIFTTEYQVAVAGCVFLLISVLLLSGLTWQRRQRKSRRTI

[5] = biological target: T1, CD25 protein (Sino Biological, …); experiment: ELISA; CD25 protein coated in a dilution series, antibody at one fixed concentration, anti-human IgG/HRP; remark: listed apart in the source
Source text: as §1

[6] = biological target: T2, CD25 on cells (SU-DHL-1 target cells; …); experiment: cell-based or functional assay; remark: listed apart in the source
[7] = biological target: T1, CD25 protein (Sino Biological, …); experiment: ELISA; CD25 protein coated in a dilution series, antibody at one fixed concentration, anti-human IgG/HRP; remark: listed apart in the source
Source text: as §1

[8] = biological target: T2, CD25 on cells (SU-DHL-1 target cells; …); experiment: cell-based or functional assay; remark: listed apart in the source

B1: CD25Q14-BA448-IgG1 (antibody, V domains shown)
VH: EVQLVQSGAEVKKPGESLKISCKGSGYNFANYWIVWVRQMPGKGLEWMGITYPDDSETRYSPSFQGQVTFSADKSISTAYLQWSSLKASDTAMYYCTRGPYYSDYWGQGTLVTVSS
VL: DIQMTQSPSTLSASVGDRVTITCRASQSISSWLAWYQQKPGKAPKLLIYKASSLESGVPSRFSGSGSGTEFTLTISSLQPDDFATYYCQQYDRFSWTFGQGTKVEIKR
notes: IgG1; The VH is copied as printed. 'YVVGQG' near its end may be a misprint of 'YWGQG'
B1 was tested, and the Kd [1] was 0.904 nM, the koff [1] was 0.000531 s⁻¹ and the kon [1] was 587000 M⁻¹ s⁻¹. It also gave an EC50 [2] of 0.00268 µg/mL.

B2: CD25Q14-CA707-IgG1 (antibody, V domains shown)
VH: EVQLVQSGAEVKKPGESLKISCKGSGYSFSNYWIGWVRQMPGKGLEWMGIISPGDSTTKYSPSFQGQVTFSADKSTSTAYLQWSSLQASDTAMYYCVRGPYYLDYWGQGTLVTVSS
VL: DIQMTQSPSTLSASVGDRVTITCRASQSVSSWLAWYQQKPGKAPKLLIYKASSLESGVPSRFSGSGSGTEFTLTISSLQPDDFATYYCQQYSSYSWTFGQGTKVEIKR
notes: IgG1 expressed in HEK293
B2 gave a Kd [1] of 2.85 nM, a koff [1] of 0.000944 s⁻¹ and a kon [1] of 331000 M⁻¹ s⁻¹. For the same binder, the EC50 [3] was 0.00641 µg/mL and the “EC50 of simulated killing activity (Jurkat effector reporter cells, SU-DHL-1 target cells, luminescence)” value (from here on “EC50 of simulated killing activity”) [4] was 0.248 µg/mL.

B3: CD25Q11-BA415-IgG1 (antibody, V domains shown)
VH: QVQLVQSGTEVKKPGESLKISCEGVGYSFTTYWIGWVRQMPGKGLEWMGIIYPGDSITRYSPSFQGQVTISADKSINTAYLQWSSLMASDTAMYYCVRGPHWGDYWGQGTLVTVSS
VL: DIQMTQSPSTLSASVGDRVTITCRASQSISTWLAWYQQKPGKAPKLLIYKASSLESGVPSRFSGSGSGTEFTLTISSLQPDDFAAYYCQQYSSYSWTFGQGTKVEIKR
notes: IgG1 expressed in HEK293
B3 gave a Kd [1] of 0.614 nM, a koff [1] of 0.000199 s⁻¹ and a kon [1] of 323000 M⁻¹ s⁻¹. The “EC50 of simulated killing activity” value [4] was 0.233 µg/mL and the EC50 [5] was 0.000941 µg/mL.

B4: CD25Q11-BA402-IgG1 (antibody, V domains shown)
VH: QVQLVQSGAEVKKPGESLKISCKGSGYSFSNYWIAWVRQMPGKGLEWMGIIYPGDSATRYSPSFQGQVTISADKSINTAYLQWSSLRASDTAMYYCARGPYYFEYWGQGTLVTVSS
VL: DIVMTQSPSTLSASVGDRVTLTCRASQSISSYLAWYQQKPGKAPKLLIYKASTLESGVPSRFSGSGSGTEFTLTISSLQPDDFATYYCQHYNSYSVTFGGGTKVEIKR
notes: IgG1 expressed in HEK293
Work on B4 yielded a Kd [1] of 0.607 nM, a koff [1] of 0.000212 s⁻¹ and a kon [1] of 350000 M⁻¹ s⁻¹. The “EC50 of simulated killing activity” value [6] was 0.443 µg/mL and the EC50 [7] was 0.000674 µg/mL.

B5: CD25Q2-BA9-IgG1 (antibody, V domains shown)
VH: QVQLQQWGAGLLKPSETLSLTCAVYGGSFSGYYWSWIRQPPGKGLEWIGEIDHSGSTIYNPSLKSRVTISLDTSKNQFSLKLSSVTAADTALYYCARGEAFDIWGQGTMVTVSS
VL: DIVMTQSPSTLSASVGDRVTITCRASQSLRSYLAWYQQKPGKAPKLLIYKASSLESGVPSRFSGSGSGTEFTLTISSLQPDDFATYYCQQYNSYSWTFGQGTKVEIKR
notes: IgG1 expressed in HEK293; also called CD25Q-BA9-IgG1
With B5 the Kd [1] was 0.843 nM, the koff [1] was 0.000586 s⁻¹ and the kon [1] was 696000 M⁻¹ s⁻¹. For the same binder, the “EC50 of simulated killing activity” value [6] was 0.236 µg/mL, the “% PSTAT5 in CD3 positive T cells of PBMC after IL2, with 10 µg/mL antibody” value (from here on “% PSTAT5 in CD3 positive T cells of PBMC”) [8] was 26.1% and the EC50 [7] was 0.00333 µg/mL.

B6: CD25Q11-BA410-IgG1 (antibody, V domains shown)
VH: QVQLQQWGAGLLKPSETLSLTCAVYGGSFSGHYWSWIRQSPGKGLEWIGEIDHSGNAIYNPSLKSRVTISIDTSKNQFSLKLSSVTAADTAVYYCARGEAFDLWGQGTMVTVSS
VL: not shown
notes: IgG1 expressed in HEK293
B6 gave a Kd [1] of 4.81 nM, a koff [1] of 0.00674 s⁻¹ and a kon [1] of 1.4e+06 M⁻¹ s⁻¹. For the same binder, the “EC50 of simulated killing activity” value [6] was 0.215 µg/mL, the “% PSTAT5 in CD3 positive T cells of PBMC” value [8] was 16.8% and the EC50 [5] was 0.0168 µg/mL.

B7: CD25Q11-BA422-IgG1 (antibody, V domains shown)
VH: QVQLVQSGAEVKKPGSSVKVSCKASGGTFSSSAISWVRQAPGQGLDWMGRIIPLLNIADYAQKFQGRVTFTADKSTNTAYMELSSLRSEDTAVYYCARDGSGYDSNYWYFDLWGRGTLVTVSS
VL: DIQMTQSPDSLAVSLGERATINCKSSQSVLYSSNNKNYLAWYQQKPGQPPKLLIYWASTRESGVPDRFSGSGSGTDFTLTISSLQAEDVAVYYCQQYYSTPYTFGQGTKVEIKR
notes: IgG1 expressed in HEK293
For B7, the “EC50 of simulated killing activity” value [6] was 0.836 µg/mL, the “% PSTAT5 in CD3 positive T cells of PBMC” value [8] was 18.1% and the EC50 [2] was 0.0013 µg/mL.

B8: CD25Q11-BA406-IgG1 (antibody, V domains shown)
VH: EVQLVQSGAEVKKPGESLKISCKGSGYSFTNYWIAWVRQMPGKGLEWMGIIYPGDSVTRYSPSFQGQVTISADKSINTAYLQWSSLRASDTAMYYCARGPYYFEYWGQGTLVTVSS
VL: DIVMTQSPSTLSASVGDRVTITCRASQSISSFLAWYQQKPGRAPELLIYKASTLESRVPSRFSGSGSGTEFTLTISSLQPEDFATYYCQQYKSFSWTVGQGTKVEIKR
notes: IgG1 expressed in HEK293
With B8 the EC50 [5] was 0.000651 µg/mL.
